This data set has as its target T1, SSB (single-strand binding protein) (Sulfolobus solfataricus, UniProt Q97W73 1-148).
T1 sequence: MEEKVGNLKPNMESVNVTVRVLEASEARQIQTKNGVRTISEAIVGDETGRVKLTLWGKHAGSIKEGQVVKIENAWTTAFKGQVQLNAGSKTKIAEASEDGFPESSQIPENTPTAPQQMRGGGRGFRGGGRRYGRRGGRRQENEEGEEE
Briefly: EMSA.

B1: RGA oligonucleotide (dsDNA)
DNA 1: GGCTGTCGACGAAGATAGAGGACTTAATCGATATC
DNA 2: GGGATATCGATTAAGTCCTCTATCTTCGTCGACAG
As to B1, the binding result is “binds”.

Values taken from paper PMC548347.
